From US11230591 come the findings set out here.

Assay [1] has as its target CMV virions. The assay can be described thus: virion ELISA. (An ELISA detects its analyte on a solid surface through an enzyme-linked reagent.)
The target in assay [2] is pentameric gH complex on infectious CMV (neutralization assays) (human cytomegalovirus). The assay can be described thus: cell-based or functional assay.
Assay [3] has as its target recombinant pentameric gH complex (Towne strain) (human cytomegalovirus, Towne strain) (UniProt P17176). The assay can be described thus: BLI competition on His-pentamer; competitor (antibody 2): 3-7.
Assay [4] shares this target. The assay can be described thus: BLI competition on His-pentamer; competitor (antibody 2): 1-32.
Assay [5] has the same target. The assay can be described thus: BLI competition on His-pentamer; competitor (antibody 2): 1-85.
Assay [6] has the same target. The assay can be described thus: BLI competition on His-pentamer; competitor (antibody 2): 2-18.
Assay [7] shares this target. Description: BLI competition on His-pentamer; competitor (antibody 2): 2-25.
The target is the same in assay [8]. Description: BLI competition on His-pentamer; competitor (antibody 2): 3-15.
Assay [9] shares this target. Description: BLI competition on His-pentamer; competitor (antibody 2): 3-16.
Assay [10] has the same target. The assay can be described thus: BLI competition on His-pentamer; competitor (antibody 2): 57.4.
Assay [11] has the same target. Description: BLI competition on His-pentamer; competitor (antibody 2): 70.7.
Assay [12] shares this target. The assay can be described thus: BLI competition on His-pentamer; competitor (antibody 2): 1-103.
Assay [13] shares this target. The assay can be described thus: BLI competition on His-pentamer; competitor (antibody 2): 1-150.
For assay [14] the target is unchanged. The assay can be described thus: BLI competition on His-pentamer; competitor (antibody 2): 124.4.
Assay [15] shares this target. Description: BLI competition on His-pentamer; competitor (antibody 2): 270.7.
Assay [16] shares this target. The assay can be described thus: BLI competition on His-pentamer; competitor (antibody 2): 276.1.
Assay [17] shares this target. The assay can be described thus: BLI competition on His-pentamer; competitor (antibody 2): 316.2.
Assay [18] shares this target. The assay can be described thus: BLI competition on His-pentamer; competitor (antibody 2): 324.4.

Broadly, the EC50 is the concentration needed to bring the measured effect to its halfway point.

recombinant pentameric gH complex (Towne strain) (human cytomegalovirus, Towne strain), sequence (P17176 30-715, one chain of several): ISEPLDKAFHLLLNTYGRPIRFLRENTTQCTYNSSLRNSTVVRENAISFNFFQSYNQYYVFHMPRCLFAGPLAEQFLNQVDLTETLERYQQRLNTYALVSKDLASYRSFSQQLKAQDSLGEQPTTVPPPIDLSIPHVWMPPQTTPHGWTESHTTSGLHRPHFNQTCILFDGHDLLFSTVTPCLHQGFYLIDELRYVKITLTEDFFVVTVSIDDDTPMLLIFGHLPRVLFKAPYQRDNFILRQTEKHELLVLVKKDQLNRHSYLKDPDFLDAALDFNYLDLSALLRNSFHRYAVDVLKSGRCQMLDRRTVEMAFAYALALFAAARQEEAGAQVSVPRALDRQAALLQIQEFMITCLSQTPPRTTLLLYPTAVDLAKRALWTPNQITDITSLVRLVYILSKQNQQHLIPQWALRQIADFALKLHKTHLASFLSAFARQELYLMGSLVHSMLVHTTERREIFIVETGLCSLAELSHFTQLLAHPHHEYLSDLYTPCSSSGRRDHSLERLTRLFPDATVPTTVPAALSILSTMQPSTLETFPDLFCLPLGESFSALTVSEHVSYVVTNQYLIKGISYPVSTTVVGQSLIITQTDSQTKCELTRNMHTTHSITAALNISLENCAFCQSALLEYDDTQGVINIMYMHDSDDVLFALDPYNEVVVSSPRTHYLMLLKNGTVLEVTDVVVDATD

B1: 3-16 (antibody, V domains shown)
VH: QVQVVQSGAEVKKPGASVMVSCKTSGYRFTIYSIAWMRQAPGQGLEWMGSINTYNGNTKYAEKFQGRVTMSRDTSTSTAYMEVRSLGSADTAMYYCARDAENWGFFDDWGQGTLVTVSS
VL: EIVLTQSPGTVSLSPGERVTLSCRASQSVGRHLAWYQQKPGQPPRLLIYGASTRATGVPDRFSGSGSETEFTLAISSLQSEDFALYYCQQYNTWPYTFGQGTKLEIK
Turning to B1, in [1], the EC50 stood at 0.1 µg/mL. The molecule further had an EC50 Neutralizing in assay [2] of 0.09 µg/mL. The molecule also gave an IC50 in ARPE-19 in assay [2] of 0.017 µg/mL. For the same molecule, the IC50 in MRC-5 in [2] was 0.037 µg/mL. Moreover, the Pair-wise inhibition (%) in assay [3] is 79%; in assay [4] it was -5%; in assay [5], 16%; in [6] it was -17%; in [7], -21%; in [8], 95%. The Pair-wise inhibition (%) was 88% in assay [9]; 11% in [10]; 2% in assay [11]; 6% in assay [12]; -22% in assay [13]; -1% in [14]. For the same molecule, the Pair-wise inhibition (%) in assay [15] was -1%; in assay [16], 18%; in assay [17] it was -7%; in [18], -5%.

B2: 2-18 (antibody, V domains shown)
VH: EVQLVQSGGGLVQPGGSLRVSCAASGFSFSDHDMDWVRQAPGKGFEWVGRSRNKDYSSTTEYAASVRGRFTISRHTSEDLLYLELNTVKTEDTAVYFCARGPHHSDRSGYYGGTFDIWGQGTMVTVSS
VL: DIQMTQSPSSVSASVGDRVIITCRASQGISSWLAWYQQKPGRAPRLLIYDASTLESGVPSRFSGRGSGTEFTLTINSLQPEDFATYYCQQGNMFPLTFGGGTKVEIK
In assay [1], B2 registered an EC50 of 0.09 µg/mL. For the same molecule, the EC50 Neutralizing in [2] was determined as 0.0009 µg/mL. In addition, the IC50 in ARPE-19 in assay [2] is 0.00018 µg/mL. The Pair-wise inhibition (%) was 16% in assay [3]; -1% in assay [4]; 10% in assay [5]; 97% in assay [6]; 117% in assay [7]; 15% in assay [8]. Also, the Pair-wise inhibition (%) in assay [9] was 17%; in [10], 8%; in [11] it was 6%; in [12], 8%; in assay [13] it was 12%; in assay [14], -11%. For the same molecule, the Pair-wise inhibition (%) was -6% in assay [15], -31% in assay [16], 3% in assay [17] and -1% in assay [18].

B3: 1-103 (antibody, V domains shown)
VH: QLQLQESGPGLVKPSETLSLTCSVSGDAISGSNYYWGWIRQPPGKGLQWIGSIYHTGSTFYNPSFSSRVTLSVDTSKNQFSLKLISVNAADTAVYYCARRIRGYSGTYDWGQGTLVTVSS
VL: DIQLTQSPSFLSASVGDRVTITCRASQDISSYVAWYQQKPGNAPKLLISSASTLPSGVPSRFSGSRSGTDFTLTISSLQPEDFATYYCQQLNNFGPGTTVDIK
B3 gave an EC50 in [1] of 0.2 µg/mL. Also, the EC50 Neutralizing in assay [2] is 0.004 µg/mL. The same molecule had an IC50 in ARPE-19 in [2] of 0.00088 µg/mL. The Pair-wise inhibition (%) in [3] was -12%; in assay [4], -12%; in assay [5], 6%; in [6], -10%; in [7], -20%; in assay [8], -7%. In addition, the Pair-wise inhibition (%) in assay [9] was -38%; in assay [10], -4%; in assay [11], -31%; in assay [12], 89%; in assay [13], -49%; in [14], -22%. Also, the Pair-wise inhibition (%) in assay [15] is -35%; in assay [16] it was -2%; in [17], -28%; in [18] it was -19%.
